Results as given in publication PMC9265643.
Where “and” joins values, the source holds several entries; their conditions need not be identical. Identical values can stand only once.

How the values were obtained:
[1] = biological target: myristoylated Gtα/Giα chimera (European robin cone Gtα with residues 220-298 replaced by the corresponding region of bovine Giα1) (European robin | bovine); test: SPR; Biacore 3000; Gtα/Giα chimera (myristoylated or non-myristoylated) amine-coupled on CM5 chip, 500 nM ErCry4a-497 injected; 10 mM HEPES/NaOH pH 7.4, 150 mM NaCl, 10 mM MgCl2, 0.005% Tween-20, 3.4 mM EDTA; fit to a Langmuir binding model, apparent KD
[2] = biological target: non-myristoylated Gtα/Giα chimera (European robin cone Gtα with residues 220-298 replaced by the corresponding region of bovine Giα1), His6-SUMO tag removed (European robin | bovine); test: as above
[3] = biological target: non-myristoylated Gtα/Giα chimera (European robin cone Gtα with residues 220-298 replaced by the corresponding region of bovine Giα1), His6-SUMO tag removed (European robin | bovine); test: as above; remark: listed apart in the source
[4] = biological target: myristoylated Gtα/Giα chimera (European robin cone Gtα with residues 220-298 replaced by the corresponding region of bovine Giα1) (European robin | bovine); test: SPR; Biacore 3000; Gtα/Giα chimera (myristoylated or non-myristoylated) amine-coupled on CM5 chip, ErCry variant injected; 10 mM HEPES/NaOH pH 7.4, 150 mM NaCl, 10 mM MgCl2, 0.005% Tween-20, 3.4 mM EDTA; control surface Ulp1 (activation/deactivation cycle for ErCry1a); global fit to a two-state-reaction model, apparent KD = kd1/ka1
[5] = biological target: non-myristoylated Gtα/Giα chimera (European robin cone Gtα with residues 220-298 replaced by the corresponding region of bovine Giα1), His6-SUMO tag removed (European robin | bovine); test: as above
[6] = biological target: non-myristoylated Gtα/Giα chimera (European robin cone Gtα with residues 220-298 replaced by the corresponding region of bovine Giα1), His6-SUMO tag removed (European robin | bovine); test: as above; remark: listed apart in the source
[7] = biological target: ErGtα-mRuby3 (wildtype European robin cone G protein α-subunit with mRuby3 fused to its C-terminus) (European robin); test: FRET or BRET; acceptor photobleaching FRET in transiently co-transfected QNR/K2 quail neuroretina cells, fixed 48 h after transfection; donor mClover3, acceptor mRuby3; FRET efficiency in percent
[8] = biological target: rhodopsin (dark-adapted) (Bos taurus) (UniProt P02699); test: SPR; conditions: cited from earlier work
UniProt P02699, sequence (P02699 whole entry): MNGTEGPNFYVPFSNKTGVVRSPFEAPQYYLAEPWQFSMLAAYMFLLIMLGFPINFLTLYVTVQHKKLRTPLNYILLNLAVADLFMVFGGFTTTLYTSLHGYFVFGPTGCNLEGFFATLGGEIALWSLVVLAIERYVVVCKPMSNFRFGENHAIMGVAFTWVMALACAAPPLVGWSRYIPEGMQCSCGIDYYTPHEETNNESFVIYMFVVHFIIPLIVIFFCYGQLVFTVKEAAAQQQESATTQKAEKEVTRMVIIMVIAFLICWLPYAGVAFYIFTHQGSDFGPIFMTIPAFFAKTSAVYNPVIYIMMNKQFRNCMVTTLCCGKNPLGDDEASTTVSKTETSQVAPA

C-terminally truncated European robin cryptochrome 4a (ErCry4a-497) (domain or fragment)
Kd [1]: 200 nM
koff [1]: 0.000915 s⁻¹
kon [1]: 5350 M⁻¹ s⁻¹
Kd [2]: 340 nM
koff [2]: 0.00305 s⁻¹
kon [2]: 6510 M⁻¹ s⁻¹
Kd [3]: 360 nM

European robin cryptochrome 1a (ErCry1a), apo form without bound FAD (natural protein)
Kd [4]: 400 nM
ka1 (two-state-reaction model, forward reaction rate) [4]: 130000 M⁻¹ s⁻¹
kd1 (two-state-reaction model, backward reaction rate) [4]: 0.0527 s⁻¹

European robin cryptochrome 4a (ErCry4a), purified recombinant, as used in SPR (natural protein)
Kd [5]: 35 nM
Kd [4]: 200 nM and 290 nM
ka1 (two-state-reaction model, step A + B to AB) [4]: 3320 M⁻¹ s⁻¹
kd1 (two-state-reaction model, step AB to A + B) [4]: 0.000674 s⁻¹
Kd [6]: 32 nM
ka1 (two-state-reaction model, step A + B to AB) [6]: 343000 M⁻¹ s⁻¹
kd1 (two-state-reaction model, step AB to A + B) [6]: 0.011 s⁻¹

mClover3-ErCry4 (ErCry4a with mClover3 fused to its N-terminus) (natural protein)
FRET efficiency [7]: 49.7%

European robin cryptochrome 1b (ErCry1b), apo form without bound FAD (natural protein)
Kd [4]: 1530 nM
ka1 (two-state-reaction model, forward reaction rate) [4]: 21700 M⁻¹ s⁻¹
kd1 (two-state-reaction model, backward reaction rate) [4]: 0.0332 s⁻¹

mClover3-ErCry4, truncated after aa 497 (domain or fragment)
FRET efficiency [7]: 49.5%

transducin (from UniProt P04695)
Kd [8]: 360 nM
